The chains are these.
B3: EhRacC^Q65L (GTPase-deficient EhRacC mutant, GTP-bound) (enzyme, Entamoeba histolytica (strain HM-1:IMSS), UniProt Q24816 1-182, looked up)
chain: MSEKPTSIKLVVVGDGAVGKTCLLISYSIRKFPEDYIPTVFDNYVVSLTAGTRQIQLALWDTAGLEEYDQLRPLSYSSASIFLICFSVTSSVSYDNVITKWHPEVIHFAPKVPIILVGTKLDTRNDPAIVKRLTEQGMTVINTAKGEELKNRIKAVKYIECSAKTSENLKTVFDEAVKTVLM

No end group written: not given here.

Assay [1] concerns the target B3. Description: SPR. (In general: Surface plasmon resonance follows binding to a sensor surface in real time, without labels.)
In assay [2] the target is T1, EhPAK4 PBD, tag removed (crystallographic construct) (Entamoeba histolytica (strain HM-1:IMSS), UniProt C4LSU1 12-78).
T1 sequence (looked up): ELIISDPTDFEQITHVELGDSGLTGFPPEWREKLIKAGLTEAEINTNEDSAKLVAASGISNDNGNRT
Put plainly: SEC. (In gel filtration, larger molecules generally elute earlier.)

Data on three molecules can be found in paper PMC4303316 (Biochemistry, 2014).

B1: His6-EhPAK5 PBD (p21 binding domain of Entamoeba histolytica p21-activated kinase 5) (domain or fragment, Entamoeba histolytica (strain HM-1:IMSS), UniProt C4MBQ2 105-161, looked up)
chain: His6-DISEPTDYHHLTHVAYEEGGFVGIPYEWENVFLACGITREEIKSNKEDAIKVLEFTQ
On to B1, for which the Kd (as a rule, the free concentration of one partner at which half of the binding sites on the other are occupied at equilibrium, for simple one-to-one binding) in assay [1] stood at 1900 ± 200 nM.

B2: His6-EhPAK4 PBD (p21 binding domain of Entamoeba histolytica p21-activated kinase 4) (domain or fragment, Entamoeba histolytica (strain HM-1:IMSS), UniProt C4LSU1 12-78, looked up)
chain: ELIISDPTDFEQITHVELGDSGLTGFPPEWREKLIKAGLTEAEINTNEDSAKLVAASGISNDNGNRT
On to B2, for which, in assay [1], binding was characterised by a dissociation constant (Kd) of 170 ± 30 nM. Compared with the last molecule, the Kd is about 11-fold lower. Regarding B3, in assay [2], the “stoichiometry N” value was 1 EhRacC:EhPAK4.
